Source: IntAct's records for PubMed 21596426

Key:
[1] = target: h32_human H3C13 (UniProt Q71DI3)
[2] = target: h4_human H4C16 (UniProt P62805)

## Nucleosome-remodeling factor subunit BPTF (Homo sapiens) (from UniProt Q12830-4) W2748E
[1]
  effect of a mutation on the interaction: disrupting interaction

## Nucleosome-remodeling factor subunit BPTF (Homo sapiens) (from UniProt Q12830-4) F2870A
[2]
  effect of a mutation on the interaction: disrupting interaction
